The source of these data is IntAct's records for PubMed 20723757.

First the molecules themselves.
B1: Monopolin complex subunit CSM1 (Saccharomyces cerevisiae), P25651 (parent)
chain: MDPLTVYKNSVKQQIDSADLLVANLVNENFVLSEKLDTKATEIKQLQKQIDSLNAQVKELKTQTSQQAENSEVIKDLYEYLCNVRVHKSYEDDSGLWFDISQGTHSGGSSDDYSIMDYKLGFVKGQAQVTEVIYAPVLKQRSTEELYSLQSKLPEYLFETLSFPLSSLNQFYNKIAKSLNKKREKKDETE
partner: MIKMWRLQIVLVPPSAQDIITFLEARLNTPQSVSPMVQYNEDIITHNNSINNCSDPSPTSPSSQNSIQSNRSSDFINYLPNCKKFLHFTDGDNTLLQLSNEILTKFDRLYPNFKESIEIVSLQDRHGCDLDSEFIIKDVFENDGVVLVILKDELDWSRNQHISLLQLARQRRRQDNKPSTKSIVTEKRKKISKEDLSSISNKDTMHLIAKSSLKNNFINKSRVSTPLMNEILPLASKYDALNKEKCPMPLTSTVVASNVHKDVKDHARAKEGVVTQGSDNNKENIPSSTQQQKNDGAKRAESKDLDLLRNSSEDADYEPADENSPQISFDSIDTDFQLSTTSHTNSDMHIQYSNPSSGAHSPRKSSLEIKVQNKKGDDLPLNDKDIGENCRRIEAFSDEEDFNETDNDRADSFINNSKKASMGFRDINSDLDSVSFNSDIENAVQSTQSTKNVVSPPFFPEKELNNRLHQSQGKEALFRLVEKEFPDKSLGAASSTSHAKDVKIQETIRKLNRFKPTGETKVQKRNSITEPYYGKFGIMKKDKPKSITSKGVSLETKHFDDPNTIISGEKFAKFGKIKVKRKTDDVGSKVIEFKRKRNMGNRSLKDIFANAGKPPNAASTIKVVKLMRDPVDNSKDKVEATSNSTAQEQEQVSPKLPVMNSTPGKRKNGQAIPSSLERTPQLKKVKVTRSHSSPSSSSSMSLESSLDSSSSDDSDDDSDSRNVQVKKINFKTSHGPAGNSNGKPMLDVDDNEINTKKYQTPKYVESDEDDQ
B2: Monopolin complex subunit CSM1 (Saccharomyces cerevisiae), P25651 (parent)
chain: B1 chain
B3: Monopolin complex subunit pcs1 (Schizosaccharomyces pombe (strain ATCC 38366 / 972)), O13684 (parent)
chain: MRKNNMQTSKDSELKEQAKGKSSKLIHKLPKQRTRISQGQMHSTQDFVNNEDQDAYSVRENENELHINNSGMSELNKKLQLPNVELSTLSHTQEQEFNELNKLIRKINELQEFYLLEDLAKPVTNAGADADDTIVKDLKKELENEKKANHSLKNELLKTREQIKNYSKINILIKELFGLEVADCIEDEDGYRFNCKNTGRRGTLEYQLLLDDQNFTFTPRLNVQTDEELMKHLPDYLLEEIIFTKEQGKLFSARLMKALQD
partner: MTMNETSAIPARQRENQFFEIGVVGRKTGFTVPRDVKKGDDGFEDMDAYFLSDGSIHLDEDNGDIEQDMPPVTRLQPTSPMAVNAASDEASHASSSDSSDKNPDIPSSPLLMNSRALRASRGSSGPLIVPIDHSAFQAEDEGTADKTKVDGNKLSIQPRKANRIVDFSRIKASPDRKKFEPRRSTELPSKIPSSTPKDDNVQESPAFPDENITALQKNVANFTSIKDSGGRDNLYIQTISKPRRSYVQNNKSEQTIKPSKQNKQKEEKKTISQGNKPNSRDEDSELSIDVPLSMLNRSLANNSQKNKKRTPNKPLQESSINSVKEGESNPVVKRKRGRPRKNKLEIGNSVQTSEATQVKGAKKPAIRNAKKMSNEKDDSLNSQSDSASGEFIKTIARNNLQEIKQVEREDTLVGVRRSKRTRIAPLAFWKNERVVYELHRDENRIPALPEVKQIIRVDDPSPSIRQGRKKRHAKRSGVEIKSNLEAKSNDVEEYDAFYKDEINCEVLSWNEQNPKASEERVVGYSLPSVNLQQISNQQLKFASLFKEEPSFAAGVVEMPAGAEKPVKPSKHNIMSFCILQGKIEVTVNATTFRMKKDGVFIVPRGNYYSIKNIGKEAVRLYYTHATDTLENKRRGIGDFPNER

Variants of B1 are the subject of one test. The note with it: with tof2_yeast TOF2, Q02208.
As to MDPLTVYKNSVKQQIDSADLLVANLVNENFVLSEKLDTKATEIKQLQKQIDSLNAQVKELKTQTSQQAENSEVIKDLYEYLCNVRVHKSYEDDSGLWFDISQGTHSGGSSDDYSIMDYKLGFVKGQAQVTEVIYAPVLKQRSTEELYSLQSKLPEALFETLSFPLSSLNQFYNKIAKSLNKKREKKDETE [Y156A], the “effect of a mutation on the interaction” value is given as “decreasing interaction”.

With MDPLTVYKNSVKQQIDSADLLVANLVNENFVLSEKLDTKATEIKQLQKQIDSLNAQVKELKTQTSQQAENSEVIKDLYEYLCNVRVHKSYEDDSGLWFDISQGTHSGGSSDDYSIMDYKLGFVKGQAQVTEVIYAPVLKQRSTEELYSLQSKLPEELFETLSFPLSSLNQFYNKIAKSLNKKREKKDETE [Y156E], the “effect of a mutation on the interaction” value is “decreasing interaction”.

As to MDPLTVYKNSVKQQIDSADLLVANLVNENFVLSEKLDTKATEIKQLQKQIDSLNAQVKELKTQTSQQAENSEVIKDLYEYLCNVRVHKSYEDDSGLWFDISQGTHSGGSSDDYSIMDYKLGFVKGQAQVTEVIYAPVLKQRSTEELYSLQSKLPEYLFETDSFPLSSLNQFYNKIAKSLNKKREKKDETE [L161D], the “effect of a mutation on the interaction” value is listed as “decreasing interaction”.

Turning to MDPLTVYKNSVKQQIDSADLLVANLVNENFVLSEKLDTKATEIKQLQKQIDSLNAQVKELKTQTSQQAENSEVIKDLYEYLCNVRVHKSYEDDSGLWFDISQGTHSGGSSDDYSIMDYKLGFVKGQAQVTEVIYAPVLKQRSTEELYSLQSKLPEYLFETKSFPLSSLNQFYNKIAKSLNKKREKKDETE [L161K], the “effect of a mutation on the interaction” value is listed as “decreasing interaction”.

For MDPLTVYKNSVKQQIDSADLLVANLVNENFVLSEKLDTKATEIKQLQKQIDSLNAQVKELKTQTSQQAENSEVIKDLYEYLCNVRVHKSYEDDSGLWFDISQGTHSGGSSDDYSIMDYKLGFVKGQAQVTEVIYAPVLKQRSTEELYSLQSKLPEYLFETLSFPLSSLNQFYNEIAKSLNKKREKKDETE [K174E], the “effect of a mutation on the interaction” value is “decreasing interaction”.

The variants in another test derive from B2. To be noted: with cenpc_yeast MIF2, P35201.
Sequence of cenpc_yeast MIF2, P35201 (P35201 whole entry): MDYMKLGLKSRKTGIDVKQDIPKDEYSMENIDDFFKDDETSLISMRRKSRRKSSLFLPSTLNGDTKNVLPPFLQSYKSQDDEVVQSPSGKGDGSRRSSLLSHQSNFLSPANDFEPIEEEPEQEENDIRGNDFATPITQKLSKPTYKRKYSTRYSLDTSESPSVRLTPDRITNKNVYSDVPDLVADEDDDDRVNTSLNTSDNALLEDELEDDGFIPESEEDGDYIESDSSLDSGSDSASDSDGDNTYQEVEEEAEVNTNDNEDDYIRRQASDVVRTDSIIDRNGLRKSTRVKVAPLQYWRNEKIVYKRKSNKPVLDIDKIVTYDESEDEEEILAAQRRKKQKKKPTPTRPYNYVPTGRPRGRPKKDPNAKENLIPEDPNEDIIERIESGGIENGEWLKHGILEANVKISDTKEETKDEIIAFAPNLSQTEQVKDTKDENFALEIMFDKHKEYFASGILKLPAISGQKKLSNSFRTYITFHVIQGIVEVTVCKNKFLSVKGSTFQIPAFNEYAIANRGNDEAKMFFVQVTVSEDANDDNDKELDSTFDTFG
For MDPLTVYKNSVKQQIDSADLLVANLVNENFVLSEKLDTKATEIKQLQKQIDSLNAQVKELKTQTSQQAENSEVIKDLYEYLCNVRVHKSYEDDSGLWFDISQGTHSGGSSDDYSIMDYKLGFVKGQAQVTEVIYAPVLKQRSTEELYSLQSKLPEYLFETKSFPLSSLNQFYNKIAKSLNKKREKKDETE [L161K], the “effect of a mutation on the interaction” value is reported as “decreasing interaction”.

On to MDPLTVYKNSVKQQIDSADLLVANLVNENFVLSEKLDTKATEIKQLQKQIDSLNAQVKELKTQTSQQAENSEVIKDLYEYLCNVRVHKSYEDDSGLWFDISQGTHSGGSSDDYSIMDYKLGFVKGQAQVTEVIYAPVLKQRSTEELYSLQSKLPEYLFETDSFPLSSLNQFYNKIAKSLNKKREKKDETE [L161D], for which the “effect of a mutation on the interaction” value was “decreasing interaction”.

For the variant MDPLTVYKNSVKQQIDSADLLVANLVNENFVLSEKLDTKATEIKQLQKQIDSLNAQVKELKTQTSQQAENSEVIKDLYEYLCNVRVHKSYEDDSGLWFDISQGTHSGGSSDDYSIMDYKLGFVKGQAQVTEVIYAPVLKQRSTEELYSLQSKLPEELFETLSFPLSSLNQFYNKIAKSLNKKREKKDETE [Y156E], the “effect of a mutation on the interaction” value is “decreasing interaction”.

In the next test the parent is B3. The note with it: with cenpc_schpo cnp3, Q9USR9.
As to MRKNNMQTSKDSELKEQAKGKSSKLIHKLPKQRTRISQGQMHSTQDFVNNEDQDAYSVRENENELHINNSGMSELNKKLQLPNVELSTLSHTQEQEFNELNKLIRKINELQEFYLLEDLAKPVTNAGADADDTIVKDLKKELENEKKANHSLKNELLKTREQIKNYSKINILIKELFGLEVADCIEDEDGYRFNCKNTGRRGTLEYQLLLDDQNFTFTPRLNVQTDEELMKHLPDYLLEEAIFTKEQGKLFSARLMKALQD [I241A], the “effect of a mutation on the interaction” value was “decreasing interaction”.

With MRKNNMQTSKDSELKEQAKGKSSKLIHKLPKQRTRISQGQMHSTQDFVNNEDQDAYSVRENENELHINNSGMSELNKKLQLPNVELSTLSHTQEQEFNELNKLIRKINELQEFYLLEDLAKPVTNAGADADDTIVKDLKKELENEKKANHSLKNELLKTREQIKNYSKINILIKELFGLEVADCIEDEDGYRFNCKNTGRRGTLEYQLLLDDQNFTFTPRLNVQTDEELMKHLPDALLEEIIFTKEQGKLFSARLMKALQD [Y236A], the “effect of a mutation on the interaction” value is “decreasing interaction”.
